Measurements reported in patent US20250064909A1 (MEDIMABBIO, published 2025).
Read-outs that look alike come from different tables or passages of the source.

Experiments:
[1] = target: T1, TIGIT on cells (human primary T cells, PBMC, NK cells; Promega TIGIT effector cells) (human, UniProt Q495A1 22-244); assay: cell-based or functional assay
T1 sequence: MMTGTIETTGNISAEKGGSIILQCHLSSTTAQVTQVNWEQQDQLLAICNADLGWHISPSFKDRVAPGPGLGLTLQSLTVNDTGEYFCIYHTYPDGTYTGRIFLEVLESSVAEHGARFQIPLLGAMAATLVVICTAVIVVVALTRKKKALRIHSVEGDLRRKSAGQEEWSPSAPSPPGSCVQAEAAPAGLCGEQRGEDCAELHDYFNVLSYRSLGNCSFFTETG

[2] = target: T2, recombinant human TIGIT (Acrobiosystems) (human, UniProt Q495A1 22-141); assay: SPR (Biacore T200), multi-cycle kinetics, purified IgG captured on anti-human IgG CM5 chip, TIGIT as analyte, 1:1 fit
T2 construct: Bought protein; also called hTIGIT; human TIGIT antigen
T2 sequence: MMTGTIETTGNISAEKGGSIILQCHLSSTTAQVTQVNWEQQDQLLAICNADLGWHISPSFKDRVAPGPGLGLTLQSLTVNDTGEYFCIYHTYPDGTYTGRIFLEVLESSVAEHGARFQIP

[3] = target: T1, TIGIT on cells (human primary T cells, …); assay: cell-based or functional assay; remark: listed apart in the source
[4] = target: T3, recombinant human TIGIT (Sino Biological) (human, UniProt Q495A1 22-138); assay: SPR (Biacore T200), single cycle kinetics, IgG from supernatant captured on anti-human chip, TIGIT as analyte, 1:1 fit;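 further: measured at 25 °C in HBS-P+ with 1% BSA, four ascending TIGIT concentrations, 210 s association per step, one final 900 s dissociation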
T3 construct: Bought protein; NP_776160.2; also called human TIGIT antigen; hTIGIT
T3 sequence: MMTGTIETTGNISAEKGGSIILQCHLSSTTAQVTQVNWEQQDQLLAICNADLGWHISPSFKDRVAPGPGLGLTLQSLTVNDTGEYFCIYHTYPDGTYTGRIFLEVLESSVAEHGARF

[5] = target: T3, recombinant human TIGIT (Sino …); assay: SPR single cycle kinetics; KD divided by KD of the VH0/Vκ0 chimeric antibody;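 further: biacore T200 SPR at 25 °C, IgG captured on anti-human chip, TIGIT analyte in four rising concentrations, 210 s association each, 900 s dissociation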
[6] = target: T1, TIGIT on cells (human primary T cells, …); assay: cell-based or functional assay; remark: listed apart in the source
[7] = target: T1, TIGIT on cells (human primary T cells, …); assay: cell-based or functional assay; remark: listed apart in the source

B1: anti-TIGIT 7A6 VH3/Vk5 humanized antibody (human IgG1, kappa) (antibody, V domains shown)
VH: QVQLQESGPGLVKPSQTLSLTCTVTGYSITSDYAWNWIRQPPGKGLEWMGYISYSGSARYNPSLKSRVTISRDTSKNQFSLKLSSVTAEDTATYYCARKGYPAYFAYWGQGTLVTVSS
VL: DIQMTQSPSSLSASVGDRVSITCKASQDVSTAVAWYQQKPGQAPRLLIYSASYRYTGVPDRFSGSGSGTDFTLTISSLQPEDFATYYCQHHYSTPYTFGQGTKLEIKR
notes: also called VH3Vκ5; 7A6 VH3/Vk5-IgG1
For B1, the “EC50, NFAT reporter luminescence (TIGIT effector cells + CD155 aAPC/CHO-K1 cells; blocked ligand PVR/CD155)” value [1] was 0.521 µg/mL, the Kd [2] was 0.0867 nM and the koff [2] was 0.000177 s⁻¹. The kon [2] was 2.04e+06 M⁻¹ s⁻¹, the “EC50 of the mixture with nivolumab (both antibodies at the same concentration), NFAT reporter luminescence (PD-1+TIGIT+ effector cells + PD-L1+CD155 aAPC/CHO-K1 cells)” value [3] was 0.581 µg/mL and the Kd [4] was 0.871 nM. The koff [4] was 0.00161 s⁻¹, the kon [4] was 1.85e+06 M⁻¹ s⁻¹ and the “Relative KD” value [5] was 1.34. The “EC50 of the mixture with pembrolizumab (both antibodies at the same concentration), NFAT reporter luminescence (PD-1+TIGIT+ effector cells + PD-L1+CD155 aAPC/CHO-K1 cells)” value [6] was 0.399 µg/mL, the “EC50 of the mixture with nivolumab (both antibodies at the same concentration), NFAT reporter luminescence (PD-1+TIGIT+ effector cells + PD-L1+CD155 aAPC/CHO-K1 cells)” value [7] was 0.594 µg/mL and the “EC50 of the mixture with pembrolizumab (both antibodies at the same concentration), NFAT reporter luminescence (PD-1+TIGIT+ effector cells + PD-L1+CD155 aAPC/CHO-K1 cells)” value [7] was 0.38 µg/mL.
